Bridge positions count the residues as written; N and C are the ends. Square brackets hold non-standard residues; d marks the D form. Primed or numbered codes have the meaning given here. Ends that are not written are not given here. * marks the point of attachment. Biotin = O=C1N[C@H]2[C@H](CS[C@H]2CCCCC(=O)*)N1; Lys(N3) = [N-]=[N+]=NCCCC[C@H](N)C(=O)O; PEG3′ = PEGylated amino acid linker; Biotin′ = not defined here; Pra = C#CC[C@H](N)C(=O)O
Assays:
[1] = target: T1, Plasmodium falciparum Histidine Rich Protein-2 (Pf.HRP-2) (Plasmodium falciparum); assay: method and form of the target not stated
T1 chain: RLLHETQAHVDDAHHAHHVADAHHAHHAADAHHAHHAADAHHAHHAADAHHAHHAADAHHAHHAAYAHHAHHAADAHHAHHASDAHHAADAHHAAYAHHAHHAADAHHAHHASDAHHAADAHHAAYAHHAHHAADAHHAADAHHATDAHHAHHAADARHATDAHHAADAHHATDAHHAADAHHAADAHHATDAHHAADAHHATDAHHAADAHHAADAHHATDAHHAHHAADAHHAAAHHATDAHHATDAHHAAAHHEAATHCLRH

[2] = target: T2, full-length His-tagged IL-17F protein (ab167911, Abcam) (human, UniProt Q96PD4 31-163); assay: comparison of affinities for His-tagged IL-17F; reference the other biligands (PEG1, PEG2, PEG4, PEG5)
T2 construct: Bought protein, called 'full-length'; also called human IL-17F protein; recombinant human IL-17F protein; not shown: His tag of the bought protein
T2 chain: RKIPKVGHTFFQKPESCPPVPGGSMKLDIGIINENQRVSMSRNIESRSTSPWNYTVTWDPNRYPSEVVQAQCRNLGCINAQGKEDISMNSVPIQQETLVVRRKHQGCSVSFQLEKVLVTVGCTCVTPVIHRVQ

[3] = target: T2, full-length His-tagged IL-17F protein …; assay: comparison of affinities for His-tagged IL-17F
[4] = target: T2, full-length His-tagged IL-17F protein …; assay: fluorescence polarization in solution
[5] = target: T2, full-length His-tagged IL-17F protein …; assay: binding to His-tagged IL-17F human recombinant protein; method not named there (ELISA implied)
[6] = target: T2, full-length His-tagged IL-17F protein …; assay: point ELISA against recombinant human IL-17F and IL-17A
[7] = target: T2, full-length His-tagged IL-17F protein …; assay: sandwich ELISA: biotinylated ligand on NeutrAvidin plate, His-tagged IL-17F titrated, anti-His-AP detection
[8] = target: T2, full-length His-tagged IL-17F protein …; assay: point ELISA: ligand on NeutrAvidin plate, 100 nM His-tagged IL-17F against His-tagged IL-17A as reference
Method: Point ELISA (IL-17F vs. IL-17A selectivity assay). […] The plate was aspirated and then washed with TBS (5×) and Wash Buffer (0.05% (v/v) Tween-20 in PBS, 1×). Full-length His-tagged IL-17F (ab167911, Abcam) and IL-17A (ab166882, Abcam) proteins were prepared at 100 nM and 10 nM in Wash Buffer and incubated in the designated microwells for 90 min at room temperature. Microwells were aspirated and subsequently washed with Wash Buffer (10×). To detect the bound IL-17F and IL-17A proteins, Alkaline Phosphatase (AP)-conjugated Anti-6X His tag® antibody [HIS-1] (ab49746, Abcam) was prepared at 1:10,000 dilution and added to the microwells for 1 h at room temperature. […] AttoPhos® AP Fluorescent Substrate System (S1000, Promega) was employed to develop the microwells.
(§1) For these assays, the full-length His-tagged IL-17F and IL-17A proteins were captured using the macrocyclic peptide ligands immobilized on a NeutrAvidin-coated plate.

[9] = target: T2, full-length His-tagged IL-17F protein …; assay: fluorescence polarization in solution: IL-17F titrated against the 5-FITC-tagged macrocycle
[10] = target: T1, Plasmodium falciparum Histidine Rich …; assay: comparison of EC50 values
[11] = target: T3, His6-PEG3-SQFEKFPSPPVPGGS (not fully specified (N-terminus); printed as His6-PEG3-SQFEKFPSPPVPGGS); assay: point ELISA: ligand on NeutrAvidin plate, His-tagged epitope peptide, anti-His-AP detection
T3 construct: Chemically synthesized
T3 peptide: SQFEKFPSPPVPGGS
Method: (§2) Assay to determine orientation of macrocycle binding to IL-17F Epitope1. […] The plate was aspirated and then washed with TBS (5×) and Wash Buffer (0.05% (v/v) Tween-20 in PBS, 1×). Chemically synthesized His-tagged IL-17F epitopes were prepared at 2 μM in Wash Buffer and incubated in the designated microwells for 90 min at room temperature. Wash Buffer without epitope was added as a control. Microwells were aspirated and subsequently washed with Wash Buffer (10×). To detect the bound IL-17F epitopes, Alkaline Phosphatase (AP)-conjugated Anti-6X His tag® antibody [HIS-1] (ab49746, Abcam) was prepared at 1:10,000 dilution and added to the microwells for 1 h at room temperature. […] AttoPhos® AP Fluorescent Substrate System (S1000, Promega) was employed to develop the microwells. […] Data are shown after subtraction of the no-epitope background.

[12] = target: T4, His6-PEG3-FFQKPESSPVSPGPG (not fully specified (N-terminus); printed as His6-PEG3-FFQKPESSPVSPGPG); assay: point ELISA: ligand on NeutrAvidin plate, 2 µM His-tagged epitope peptide, anti-His-AP detection
T4 construct: Chemically synthesized
T4 peptide: FFQKPESSPVSPGPG
Method: as §2

[13] = target: T5, His6-PEG3-FFQKPESSPPVPGGS (human, not fully specified (N-terminus); printed as His6-PEG3-FFQKPESSPPVPGGS); assay: point ELISA with His-tagged epitope peptides scrambled at the N- or C-terminus
T5 construct: Chemically synthesized
T5 peptide: FFQKPESSPPVPGGS

[14] = target: T2, full-length His-tagged IL-17F protein …; assay: point ELISA: ligand on NeutrAvidin plate, His-tagged IL-17F against His-tagged IL-17A as reference
Method: Point ELISA (IL-17F vs. IL-17A selectivity assay). […] The plate was aspirated and then washed with TBS (5×) and Wash Buffer (0.05% (v/v) Tween-20 in PBS, 1×). Full-length His-tagged IL-17F (ab167911, Abcam) and IL-17A (ab166882, Abcam) proteins were prepared at 100 and 10 nM in Wash Buffer and incubated in the designated microwells for 90 min at room temperature. Microwells were aspirated and subsequently washed with Wash Buffer (10×). To detect the bound IL-17F and IL-17A proteins, Alkaline Phosphatase (AP)-conjugated Anti-6X His tag® antibody [HIS-1] (ab49746, Abcam) was prepared at 1:10,000 dilution and added to the microwells for 1 h at room temperature. […] AttoPhos® AP Fluorescent Substrate System (S1000, Promega) was employed to develop the microwells.
as §1

[15] = target: T2, full-length His-tagged IL-17F protein …; assay: surface-immobilized macrocycle contacted with IL-17F, IL-17A or no protein
[16] = target: T5, His6-PEG3-FFQKPESSPPVPGGS; assay: point ELISA: ligand on NeutrAvidin plate, 2 µM His-tagged epitope peptide, anti-His-AP detection
Method: as §2

[17] = target: T2, full-length His-tagged IL-17F protein …; assay: method not named there (same number as the ELISA EC50)

For GWNVDL (also: cyclic peptide, closure not given here, also called cy(GWNVDL)) [cyclic PCC with variable sequence GWNVDL (SEQ ID NO:30)], the EC50 [1] was 50 nM.

B1: Biotin-PEG3-Cy(RSYNK)(SEQ ID NO:28)-PEG3-Cy(RRATS) (SEQ ID NO:9) (peptide)
peptide 1: {Biotin-PEG3′}-[Pra]RSYNK
peptide 2: [Pra]RRATS[Lys(N3)]
modifications: not fully specified (C-terminus); also: triazole to a chain's N/C-terminus, triazole to a chain's N/C-terminus
notes: One covalent molecule: the two macrocycles are joined by a single PEGylated amino acid (PEG3); also called Bi-LF; Cy(RSYNK)-PEG3-Cy(RRATS)
For B1, the “times stronger than the other biligands” value [2] was at least 16 fold, the “fold improvement in affinity relative to the individual PCC macrocyclic ligands” value [3] was over 100 fold and the Kd [4] was 0.252 nM. The Kd [5] was 0.246 nM and the “selectivity for IL-17F (against IL-17A)” value [6] was 4 ratio.

B2: Biotin-PEG3-Cy(KKGWP) (SEQ ID NO:23) (peptide)
peptide: KKGWP
modifications: not fully specified; cyclised by a triazole between flanking N-terminal Pra (L-propargylglycine) and C-terminal Az4 (L-azidolysine); N-terminal Biotin-PEG3 label
notes: also called PEG3-biotin-modified Cy(KKGWP)
For B2, the EC50 [7] was 24 nM and the “selectivity for IL-17F (against IL-17A)” value [8] was 4 ratio.

B3: fluorescein 5-isothiocyanate (5-FITC)-tagged LF1 (peptide)
peptide: [Pra]RRATS[Lys(N3)]
modifications: triazole N-C; numbers in words are those of the source; also: 5-FITC tag, position not given here
notes: Form of LF1 used in fluorescence polarization; also called LF1 (5-FITC-tagged)
In the case of B3, the Kd [9] is reported as 50 nM.

B4: fluorescein 5-isothiocyanate (5-FITC)-tagged LF2 (peptide)
peptide: [Pra]RSYNK[Lys(N3)]
modifications: triazole N-C; numbers in words are those of the source; also: 5-FITC tag, position not given here
notes: Form of LF2 used in fluorescence polarization; also called LF2 (5-FITC-tagged)
B4 showed a Kd [9] of 28 nM.

B5: cy(YKYYR)(SEQ ID NO:29)-linker-cy(GWNVDL) (SEQ ID NO:30) (peptide)
peptide 1: YKYYR
peptide 2: GWNVDL
modifications: not fully specified
notes: One covalent molecule; also called the resultant biligand
For B5, the EC50 [1] was 0.54 nM and the “fold improvement over the better of the two ligand components” value [10] was 100 fold.

B6: Cy(RRATS)(SEQ ID NO:9)-PEG3-biotin (peptide)
peptide: [Pra]RRATS[Lys(N3)]-{PEG3′-Biotin′}
modifications: triazole N-C
notes: also called LF1; PEG3-biotin-modified Cy(RRATS)
B6: no binding (tested: 2 µM epitope) [11]; binds [12]; binds [13]. For the same binder, the EC50 [7] was 66 nM, the “selectivity for IL-17F (against IL-17A)” value [14] was 2 ratio and the “selectivity for IL-17F (against IL-17A)” value [15] was 10 ratio.

B7: Cy(RRAQS)(SEQ ID NO:10)-PEG3-biotin (peptide)
peptide: [Pra]RRAQS[Lys(N3)]-{PEG3′-Biotin′}
modifications: triazole N-C
notes: also called PEG3-biotin-modified Cy(RRAQS)
B7: no binding (tested: 2 µM epitope) [11]; binds [12]; binds [16]. For the same binder, the EC50 [7] was 52 nM and the “selectivity for IL-17F (against IL-17A)” value [14] was 2 ratio.

B8: Biotin-PEG3-Cy(RSYNK) (SEQ ID NO:28) (peptide)
peptide: RSYNK
modifications: not fully specified; cyclised by a triazole between flanking N-terminal Pra (L-propargylglycine) and C-terminal Az4 (L-azidolysine); Biotin-PEG3 label
notes: also called LF2; PEG3-biotin-modified Cy(RSYNK)
For B8, the EC50 [7] was 15 nM, the “selectivity for IL-17F (against IL-17A)” value [8] was 4 ratio and the Kd [17] was 15 nM.

YKYYR (also: cyclic, mode of cyclisation not given here, also called cyclic YKYYR) [Cy(YKYYR) (SEQ ID NO:29)] was tested, and the EC50 [1] was 220 nM.

B9: linked biligand of two Cy(YKYYR) (SEQ ID NO:29) PCCs with about a 1.5 nm long linker (peptide)
peptide: YKYYR
modifications: also: cyclic peptide (Cy), closure not given here, dimer: two macrocycles joined by a linker of about 1.5 nm
notes: also called the resultant linked biligand
Binder B9 has an EC50 [1] of 20.8 nM.

— patent US20180364253A1 (published 2018)
